What was measured:
[1] = biological target: His-tagged wild-type cytochrome bc1 complex from Paracoccus denitrificans (Paracoccus denitrificans) (UniProt P05417)
[2] = biological target: wild-type cytochrome bc1 complex from Paracoccus denitrificans (Paracoccus denitrificans) (UniProt P05417)

Substance: horse heart cytochrome c (from UniProt P00004 1-105) (natural protein)
- steady-state reduction of cytochrome c by bc1 complex with decylubiquinol, KM [1]: 3.4 µM
- steady-state reduction of cytochrome c by bc1 complex with decylubiquinol, kCAT [1]: 328 s⁻¹
- steady-state reduction of cytochrome c by bc1 complex with decylubiquinol, KM [2]: 2.3 µM
- steady-state reduction of cytochrome c by bc1 complex with decylubiquinol, kCAT [2]: 273 s⁻¹
